Test results from article PMC2991499.
Where a chain is given by its changes, count along the chain named.

T1: RB69 DNA polymerase gp43 PolY567A Exo+ (bacteriophage RB69, UniProt Q38087 1-903, Y567A)
T1 sequence: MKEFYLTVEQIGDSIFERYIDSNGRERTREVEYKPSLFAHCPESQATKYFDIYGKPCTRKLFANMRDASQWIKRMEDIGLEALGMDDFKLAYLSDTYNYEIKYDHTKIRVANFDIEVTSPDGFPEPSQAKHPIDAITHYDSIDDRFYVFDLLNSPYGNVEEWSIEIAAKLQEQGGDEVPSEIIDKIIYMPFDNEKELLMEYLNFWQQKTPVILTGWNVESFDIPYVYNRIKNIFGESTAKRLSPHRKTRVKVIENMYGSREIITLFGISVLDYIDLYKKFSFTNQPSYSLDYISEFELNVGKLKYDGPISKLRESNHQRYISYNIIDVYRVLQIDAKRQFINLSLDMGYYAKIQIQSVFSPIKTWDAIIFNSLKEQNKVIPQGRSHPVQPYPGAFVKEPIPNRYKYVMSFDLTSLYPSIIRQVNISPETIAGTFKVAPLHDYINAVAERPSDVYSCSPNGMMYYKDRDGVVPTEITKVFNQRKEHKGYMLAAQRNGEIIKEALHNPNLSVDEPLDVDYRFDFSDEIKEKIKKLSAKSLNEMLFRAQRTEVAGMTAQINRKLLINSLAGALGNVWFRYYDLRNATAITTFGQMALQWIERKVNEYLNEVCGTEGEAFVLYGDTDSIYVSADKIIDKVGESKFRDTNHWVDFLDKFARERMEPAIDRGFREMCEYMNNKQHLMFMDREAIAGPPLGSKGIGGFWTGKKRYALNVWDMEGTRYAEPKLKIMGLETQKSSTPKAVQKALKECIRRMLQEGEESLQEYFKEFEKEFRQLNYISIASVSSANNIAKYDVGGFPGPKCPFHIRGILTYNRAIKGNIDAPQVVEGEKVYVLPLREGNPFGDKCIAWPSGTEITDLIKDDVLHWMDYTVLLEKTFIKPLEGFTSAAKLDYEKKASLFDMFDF

T2: RB69 DNA polymerase gp43 PolS565G/Y567A Exo+ (bacteriophage RB69, UniProt Q38087 1-903, S565G;Y567A)
T2 sequence: T1 sequence with S565G

T3: RB69 DNA polymerase gp43 PolS565G Exo+ (bacteriophage RB69, UniProt Q38087 1-903, S565G)
T3 sequence: T1 sequence with S565G, A567Y

T4: RB69 DNA polymerase gp43 Pol+ Exo+ (wild type) (bacteriophage RB69, UniProt Q38087 1-903)
T4 sequence: T1 sequence with A567Y

B1: normal dsDNA primer/template 20/35-mer (dsDNA)
DNA 1: TTTGATGTATTATCAATTGT
DNA 2: TGCCTTCGTAATCTTACAATTGATAATACATCAAA
B2: mismatched dsDNA primer/template 20/30-mer, terminal T·G (dsDNA)
DNA 1: ATGTGCTGCAAGGCGATTAG
DNA 2: GTTACCCAACTTAATCGCCTTGCAGCACAT

Legend:
Test in all cases: EMSA
[1] = target: T1, RB69 DNA polymerase gp43 PolY567A Exo+
[2] = target: T2, RB69 DNA polymerase gp43 PolS565G/Y567A …
[3] = target: T3, RB69 DNA polymerase gp43 PolS565G Exo+
[4] = target: T4, RB69 DNA polymerase gp43 Pol+ Exo+ …

Row | Binder | Kd [1] | Kd [2] | Kd [3] | Kd [4]
1 | B1 | 13.2 ± 1.4 nM | 29.9 ± 1.9 nM | 38.9 ± 3.4 nM | 6.9 ± 2.1 nM
2 | B2 | 25.7 ± 3.2 nM | 79.9 ± 4.8 nM | 132 ± 5.7 nM | 38.2 ± 4.3 nM
